Laboratory results taken from patent US20240216271A1, “HYDROLYTICALLY DEGRADABLE HYDROGELS AND USES THEREOF” (GEORGIA TECH RESEARCH CORPORATION, priority 2021, published 2024).

Test system: primary monocytes derived from the bone marrow of C57BL/6J mice
Experiment: Bone marrow derived macrophage co-culture with microgels (flow cytometry)
Assay type: cell-based
Conditions: 48 hr of co-culture
From the text: To assess the effects of microgels on immune cell polarization in vitro, a co-culture system was setup involving primary monocytes derived from the bone marrow of C57BL/6J mice with different formulations of crosslinked microgels. […] In addition, the overall expression of these markers was equivalent after 4 days of co-culture (FIGS. 11A-D).
Bone Marrow Derived Macrophage Co-culture: Bone marrow was isolated from the femurs and tibias of 6-week-old male C57BL/6J mice. Bones were cleaned of soft tissue, one side was cut to expose the marrow, and they were inverted in a 200 μL pipet tip cut to fit in a 1.5 mL Eppendorf tube. The bones were then centrifuged at 10,000×g for 15 sec to pellet the marrow in the bottom of the Eppendorf tube. Bones were discarded and cells were then resuspended in RBC Lysis Buffer (Biolegend 420302) to remove red blood cells. Cells were then washed in MACS buffer (DPBS pH 7.2, 0.5% BSA, 2 mM EDTA) and monocytes were isolated using the Monocyte Isolation Kit (BM), mouse (Miltenyi Biotec 130-100-629) and LS columns (Miltenyi Biotec 130-042-401).
Monocytes were cultured in RPMI 1640 media (Gibco 11875-085) supplemented with 10% heat-inactivated fetal bovine serum, 1% pen/strep, and 20 ng/mL murine M-CSF (Biolegend 574804) for 6 days in low-adherent plates. […] Samples were analyzed on a FACS-AriaIIIu flow cytometer (BD Biosciences).

Substance: IL-4: murine IL-4, 20 ng/ml; IL-4-polarized M2 positive control
- cell viability / cell survival: increase in cell numbers
